# In paper PMC1931443, “Vertebrate DM domain proteins bind similar DNA sequences and can heterodimerize on DNA”:
# B1: DMRT1 site -8G (dsDNA)
# DNA 1: TCGAGATGTGATACATTGTTGC
# DNA 2: TCGAGCAACAATGTATCACATC
# B2: 1RE (Figure 2) (dsDNA)
# DNA 1: TCGAGCCCGCAACAATGTTGCAAATC
# DNA 2: TCGAGATTTGCAACATTGTTGCGGGC
# B3: 3RE (dsDNA)
# DNA 1: TCGAGAACAATGTAACAATTTCGCCC
# DNA 2: TCGAGGGCGAAATTGTTACATTGTTC
# Experiments:
# [1] = target: T1, DMRT5 (mouse, UniProt A2A9A2 1-531); assay: competition; 40-fold excess; tolerated; EMSA: 10 mM Tris-HCl pH 7.9, 100 mM KCl, 10% glycerol, 5 mM MgCl2, 1 mM spermidine, 0.075% Triton-X-100, 1 mM DTT, 1 ug BSA, 0.1 ug dI-dC, 75 ng plasmid DNA, 0.5 ng probe, 4 ul IVT mix in 20 ul, on ice 10 min; gel at 4 C; IVT with 20 uM ZnSO4; conditions: protein: ivt; tags: N-terminal Myc; 5' overhang 4 nt both ends
# [2] = target: DMRT4 (mouse, UniProt Q8CFG4 1-490); assay: EMSA; complex fails to enter gel (possible aggregate); EMSA: 10 mM Tris-HCl pH 7.9, 100 mM KCl, 10% glycerol, 5 mM MgCl2, 1 mM spermidine, 0.075% Triton-X-100, 1 mM DTT, 1 ug BSA, 0.1 ug dI-dC, 75 ng plasmid DNA, 0.5 ng probe, 4 ul IVT mix in 20 ul, on ice 10 min; gel at 4 C; IVT with 20 uM ZnSO4; conditions: protein: ivt; tags: C-terminal Myc; chain copies: 2; label: 32P (Klenow fill-in); 5' overhang 4 nt both ends (filled in on labeling)
# [3] = target: T2, DMRT3 (mouse, UniProt Q80WT2 1-476); assay: EMSA supershift; mainly dimer; 9E10; EMSA: 10 mM Tris-HCl pH 7.9, 100 mM KCl, 10% glycerol, 5 mM MgCl2, 1 mM spermidine, 0.075% Triton-X-100, 1 mM DTT, 1 ug BSA, 0.1 ug dI-dC, 75 ng plasmid DNA, 0.5 ng probe, 4 ul IVT mix in 20 ul, on ice 10 min; gel at 4 C; IVT with 20 uM ZnSO4; conditions: protein: ivt; tags: N-terminal Myc; label: 32P (Klenow fill-in); 5' overhang 4 nt both ends (filled in on labeling)
# [4] = target: T1, DMRT5; assay: EMSA supershift; 9E10; EMSA: 10 mM Tris-HCl pH 7.9, 100 mM KCl, 10% glycerol, 5 mM MgCl2, 1 mM spermidine, 0.075% Triton-X-100, 1 mM DTT, 1 ug BSA, 0.1 ug dI-dC, 75 ng plasmid DNA, 0.5 ng probe, 4 ul IVT mix in 20 ul, on ice 10 min; gel at 4 C; IVT with 20 uM ZnSO4; conditions: protein: ivt; tags: N-terminal Myc; label: 32P (Klenow fill-in); 5' overhang 4 nt both ends (filled in on labeling)
# [5] = target: T2, DMRT3; assay: EMSA supershift; primarily monomer; 9E10; EMSA: 10 mM Tris-HCl pH 7.9, 100 mM KCl, 10% glycerol, 5 mM MgCl2, 1 mM spermidine, 0.075% Triton-X-100, 1 mM DTT, 1 ug BSA, 0.1 ug dI-dC, 75 ng plasmid DNA, 0.5 ng probe, 4 ul IVT mix in 20 ul, on ice 10 min; gel at 4 C; IVT with 20 uM ZnSO4; conditions: protein: ivt; tags: N-terminal Myc; label: 32P (Klenow fill-in); 5' overhang 4 nt both ends (filled in on labeling)
# T1 sequence (A2A9A2 whole entry): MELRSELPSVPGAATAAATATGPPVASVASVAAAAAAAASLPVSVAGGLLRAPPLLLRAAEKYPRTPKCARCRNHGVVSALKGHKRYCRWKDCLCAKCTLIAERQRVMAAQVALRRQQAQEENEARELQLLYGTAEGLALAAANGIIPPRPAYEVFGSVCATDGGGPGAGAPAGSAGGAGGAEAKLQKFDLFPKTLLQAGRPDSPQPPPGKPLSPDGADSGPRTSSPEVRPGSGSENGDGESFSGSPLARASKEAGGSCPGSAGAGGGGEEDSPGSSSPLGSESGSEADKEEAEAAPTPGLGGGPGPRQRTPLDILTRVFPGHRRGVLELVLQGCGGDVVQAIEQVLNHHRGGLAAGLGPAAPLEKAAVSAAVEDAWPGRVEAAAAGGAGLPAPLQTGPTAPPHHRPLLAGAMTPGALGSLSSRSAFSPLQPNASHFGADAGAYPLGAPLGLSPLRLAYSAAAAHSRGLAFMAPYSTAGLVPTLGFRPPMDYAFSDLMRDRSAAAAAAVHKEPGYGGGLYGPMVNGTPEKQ
# T2 sequence (Q80WT2 whole entry): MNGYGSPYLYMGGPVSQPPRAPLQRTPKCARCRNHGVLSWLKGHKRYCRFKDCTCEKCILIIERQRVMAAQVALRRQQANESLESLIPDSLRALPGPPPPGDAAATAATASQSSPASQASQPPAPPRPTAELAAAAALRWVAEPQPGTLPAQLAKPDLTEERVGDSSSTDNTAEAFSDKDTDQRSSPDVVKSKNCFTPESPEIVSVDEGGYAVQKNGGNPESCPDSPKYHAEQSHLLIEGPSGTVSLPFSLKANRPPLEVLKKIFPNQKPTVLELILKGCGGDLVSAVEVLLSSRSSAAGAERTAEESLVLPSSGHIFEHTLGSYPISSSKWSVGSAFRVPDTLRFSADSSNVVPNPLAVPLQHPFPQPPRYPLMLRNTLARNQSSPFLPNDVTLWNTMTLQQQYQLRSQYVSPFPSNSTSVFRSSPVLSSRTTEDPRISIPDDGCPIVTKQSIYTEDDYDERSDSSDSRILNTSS
# Chain of DMRT4 (Q8CFG4 whole entry): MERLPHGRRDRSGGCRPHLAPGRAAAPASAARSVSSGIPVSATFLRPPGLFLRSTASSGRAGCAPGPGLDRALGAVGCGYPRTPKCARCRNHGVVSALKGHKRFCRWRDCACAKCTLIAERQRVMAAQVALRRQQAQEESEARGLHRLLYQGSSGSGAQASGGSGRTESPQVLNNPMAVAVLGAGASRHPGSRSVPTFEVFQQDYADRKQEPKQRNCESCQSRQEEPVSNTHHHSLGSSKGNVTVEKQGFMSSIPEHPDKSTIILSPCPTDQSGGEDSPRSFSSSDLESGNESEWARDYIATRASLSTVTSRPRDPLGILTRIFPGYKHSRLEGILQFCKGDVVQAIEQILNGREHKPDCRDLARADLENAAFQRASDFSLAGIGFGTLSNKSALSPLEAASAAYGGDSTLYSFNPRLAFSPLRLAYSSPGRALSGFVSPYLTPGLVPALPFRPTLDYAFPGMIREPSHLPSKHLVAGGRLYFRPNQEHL
binder,measurement,setting,value
B1,binding result,[1],binds
B2,binding result,[2],binds
same,binding result,[3],binds
same,binding result,[4],binds
B3,binding result,[5],binds
